What was measured:
[1] = biological target: T1, Human nectin-4 ECD-6His (TNT-175) (human, UniProt Q96NY8 32-349); assay: competition ELISA; nectin-4 ECD premixed with TNT207, captured by the coat antibody; % of signal without premix antibody
T1 construct: the entry holds the extracellular domain with the C-terminal 6His tag
T1 sequence: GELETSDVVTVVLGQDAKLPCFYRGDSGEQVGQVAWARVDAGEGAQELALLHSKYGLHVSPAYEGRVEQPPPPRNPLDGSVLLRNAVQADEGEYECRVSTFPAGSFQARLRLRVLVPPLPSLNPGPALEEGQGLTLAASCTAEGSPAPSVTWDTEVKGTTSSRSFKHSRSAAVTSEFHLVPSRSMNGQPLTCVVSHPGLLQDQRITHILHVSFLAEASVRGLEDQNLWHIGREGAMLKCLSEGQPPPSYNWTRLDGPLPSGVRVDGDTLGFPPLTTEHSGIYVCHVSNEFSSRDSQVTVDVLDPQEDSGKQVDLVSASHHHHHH
Protocol: (§1) Competition experiments of nectin-4 antibodies. ELISA plates were coated overnight at 4° C. with goat anti-mouse IgG at […] in PBS. […] As positive control, nectin-4 was diluted at same concentrations without a premix antibody. Two wells per plate were allocated for diluent only as negative/background control. Plates were washed as previously, 50 μL/well of premix was added to each plate and incubated for one hour. Plates were washed then incubated at room temperature for one hour with Rabbit anti 6× HIS HRP diluted 1:4,000 in diluent. Plates were washed once more and incubated at room temperature for 20 minutes with 50 μL/well of ABTS substrate. […] Binding was measured as an Optical Density (O.D.) value normalized to background and calculated as a percentage of positive control at the lowest nectin-4 dilution for greatest resolution.

human nectin-4 on cells = biological target: T2, human nectin-4 on cells (human, UniProt Q96NY8 32-510); assay: flow cytometry MFI, MNK74 (nectin-4 positive) over AGS (negative)
T2 construct: whole, on cells; also called PVRL4
T2 sequence (looked up): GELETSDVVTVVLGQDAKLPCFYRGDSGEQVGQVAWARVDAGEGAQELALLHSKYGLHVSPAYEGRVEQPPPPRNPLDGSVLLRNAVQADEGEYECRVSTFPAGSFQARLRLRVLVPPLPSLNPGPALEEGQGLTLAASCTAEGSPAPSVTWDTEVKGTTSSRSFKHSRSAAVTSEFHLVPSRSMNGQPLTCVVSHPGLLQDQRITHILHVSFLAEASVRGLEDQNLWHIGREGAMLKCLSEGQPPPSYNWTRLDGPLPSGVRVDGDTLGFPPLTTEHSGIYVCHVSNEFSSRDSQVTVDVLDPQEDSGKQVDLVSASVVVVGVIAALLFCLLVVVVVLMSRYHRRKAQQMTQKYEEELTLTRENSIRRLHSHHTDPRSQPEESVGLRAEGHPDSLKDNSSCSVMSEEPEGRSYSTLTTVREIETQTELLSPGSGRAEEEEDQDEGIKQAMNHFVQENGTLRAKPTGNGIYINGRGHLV
Protocol: Cell binding of nectin-4 antibodies. Cell binding of the nectin-4 antibodies was also assessed. MNK74 (nectin-4 positive) and AGS (nectin-4 negative) cells were obtained from ATCC and cultured according to their protocols. Cells were detached with TrypLE (Gibco) and washed by centrifugation for five minutes at 400×g with FACS buffer (PBS+2% FBS). Cells were resuspended in FACS buffer, plated in 96-well format (0.25 e6/well) then pelleted by centrifugation for five minutes at 400×g. Cells were stained at 4° C. in Fixable Viability Dye eFluor 506 (eBioscience) diluted 1:4,000 in PBS. […] Cells were centrifuged, washed once in FACS buffer and stained at 4° C. with Goat F(ab′)₂ anti-Mouse IgG APC (Southern Biotech) diluted 1:400 in FACS buffer for 30 minutes or appropriate anti-human IgG. Cells were centrifuged, washed twice and fixed in 0.5% paraformaldehyde. Cells were analyzed on Attune NxT Flow Cytometer (Thermo Fisher), with subsequent data analysis by Flowjo 10.7 (BD). Dead cells were excluded by gating on the eFluor 506-negative population. […] Binding was assessed by median fluorescent intensity.

[2] = biological target: T1, Human nectin-4 ECD-6His (TNT-175); assay: competition ELISA; nectin-4 ECD premixed with TNT212, captured by the coat antibody; % of signal without premix antibody
Protocol: as §1

[3] = biological target: T1, Human nectin-4 ECD-6His (TNT-175); assay: competition ELISA; nectin-4 ECD premixed with TNT203, captured by the coat antibody; % of signal without premix antibody
Protocol: as §1

[4] = biological target: T1, Human nectin-4 ECD-6His (TNT-175); assay: competition ELISA; nectin-4 ECD premixed with TNT205, captured by the coat antibody; % of signal without premix antibody
Protocol: as §1

[5] = biological target: T1, Human nectin-4 ECD-6His (TNT-175); assay: competition ELISA; nectin-4 ECD premixed with TNT201, captured by the coat antibody; % of signal without premix antibody
Protocol: as §1

[6] = biological target: T1, Human nectin-4 ECD-6His (TNT-175); assay: competition ELISA; nectin-4 ECD premixed with TNT206, captured by the coat antibody; % of signal without premix antibody
Protocol: as §1

[7] = biological target: T1, Human nectin-4 ECD-6His (TNT-175); assay: competition ELISA; nectin-4 ECD premixed with TNT204, captured by the coat antibody; % of signal without premix antibody
Protocol: as §1

[8] = biological target: T1, Human nectin-4 ECD-6His (TNT-175); assay: competition ELISA; nectin-4 ECD premixed with TNT211, captured by the coat antibody; % of signal without premix antibody
Protocol: as §1

[9] = biological target: T1, Human nectin-4 ECD-6His (TNT-175); assay: competition ELISA; nectin-4 ECD premixed with TNT208, captured by the coat antibody; % of signal without premix antibody
Protocol: as §1

[10] = biological target: T1, Human nectin-4 ECD-6His (TNT-175); assay: competition ELISA; nectin-4 ECD premixed with TNT210, captured by the coat antibody; % of signal without premix antibody
Protocol: as §1

[11] = biological target: T1, Human nectin-4 ECD-6His (TNT-175); assay: competition ELISA; nectin-4 ECD premixed with TNT202, captured by the coat antibody; % of signal without premix antibody
Protocol: as §1

[12] = biological target: T1, Human nectin-4 ECD-6His (TNT-175); assay: competition ELISA; nectin-4 ECD premixed with TNT209, captured by the coat antibody; % of signal without premix antibody
Protocol: as §1

[13] = biological target: T1, Human nectin-4 ECD-6His (TNT-175); assay: SPR ProteOn, mAb on protein A
Protocol: Initial testing of binding of nectin-4 antibodies to nectin-4. […] Biotinylated protein A (15 μg/mL) was immobilized to the surface of an NLC chip. 30 nM of purified mAb supernatant was diluted in PBS-T and captured over the protein A surface. Serial dilutions of human nectin-4 were injected over the mAb-coated chips, and binding kinetics were determined. Chips were regenerated using 4:1 v/v of IgG elution butter/4M NaCl.

Row | Binder | % of Positive [1] | Fold-change of binding to MNK74 compared to control AGS (human nectin-4 on cells) | % of Positive [2] | % of Positive [3] | % of Positive [4] | % of Positive [5] | % of Positive [6] | % of Positive [7] | % of Positive [8] | % of Positive [9] | % of Positive [10] | % of Positive [11] | % of Positive [12] | Kd [13] | koff [13] | kon [13]
1 | TNT-153 (antibody, mouse IgG2a, kappa) heavy: EVQLVESGGGLVQPGGSLRLSCAASGFTFSSYNMNWVRQAPGKGLEWVSYISSSSSTIYYADSVKGRFTISRDNAKNSLSLQMNSLRDEDTAVYYCARAYYYGMDVWGQGTTVTVSSAKTTAPSVYPLAPVCGDTTGSSVTLGCLVKGYFPEPVTLTWNSGSLSSGVHTFPAVLQSDLYTLSSSVTVTSSTWPSQSITCNVAHPASSTKVDKKIEPRGPTIKPCPPCKCPAPNLLGGPSVFIFPPKIKDVLMISLSPIVTCVVVDVSEDDPDVQISWFVNNVEVHTAQTQTHREDYNSTLRVVSALPIQHQDWMSGKEFKCKVNNKDLPAPIERTISKPKGSVRAPQVYVLPPPEEEMTKKQVTLTCMVTDFMPEDIYVEWTNNGKTELNYKNTEPVLDSDGSYFMYSKLRVEKKNWVERNSYSCSVVHEGLHNHHTTKSFSRTPGLLQGG light: DIQMTQSPSSVSASVGDRVTITCRASQGISGWLAWYQQKPGKAPKFLIYAASTLQSGVPSRFSGSGSGTDFTLTISSLQPEDFATYYCQQANSFPPTFGGGTKVEIKRADAAPTVSIFPPSSEQLTSGGASVVCFLNNFYPKDINVKWKIDGSERQNGVLNSWTDQDSKDSTYSMSSTLTLTKDEYERHNSYTCEATHKTSTSPIVKSFNRNEC | 2.2% | 7.4 fold | 5.6% | 28.8% | 50% | 2.8% | 7.7% | 4.2% | 22.2% | 3.5% | 4% | 3.6% | 26.2% | 3.8 nM | 0.00399 s⁻¹ | 1.05e+06 M⁻¹ s⁻¹
2 | TNT-196 (antibody, mouse IgG2a, kappa) heavy: EVQLVESGGGLVQPGGSLRLSCAASGFTFSDYYMSWIRQAPGKGLEWVSGISWNSGSIGYADSVKGRFTISRDNSKNTLYLQMNSLRAEDTAVYYCASSGSWYLPLDYWGQGTLVTVSSAKTTAPSVYPLAPVCGDTTGSSVTLGCLVKGYFPEPVTLTWNSGSLSSGVHTFPAVLQSDLYTLSSSVTVTSSTWPSQSITCNVAHPASSTKVDKKIEPRGPTIKPCPPCKCPAPNLLGGPSVFIFPPKIKDVLMISLSPIVTCVVVDVSEDDPDVQISWFVNNVEVHTAQTQTHREDYNSTLRVVSALPIQHQDWMSGKEFKCKVNNKDLPAPIERTISKPKGSVRAPQVYVLPPPEEEMTKKQVTLTCMVTDFMPEDIYVEWTNNGKTELNYKNTEPVLDSDGSYFMYSKLRVEKKNWVERNSYSCSVVHEGLHNHHTTKSFSRTPGRPQGFGPP light: DIQMTQSPSSLSASVGDRVTITCQASQDISNYLNWYQQKPGKVPKLLIYAASTLQSGVPSRFSGSGSGTDFTLTISSLQPEDFATYYCQQSYSTPLTFGGGTKVEIKRADAAPTVSIFPPSSEQLTSGGASVVCFLNNFYPKDINVKWKIDGSERQNGVLNSWTDQDSKDSTYSMSSTLTLTKDEYERHNSYTCEATHKTSTSPIVKSFNRNEC | 1.3% | 6 fold | 1.8% | 18.3% | 35.9% | 0.9% | 5.5% | 2.6% | 13.8% | 2% | 1.5% | 2.8% | 17.8% | 15.2 nM | 0.0245 s⁻¹ | 1.62e+06 M⁻¹ s⁻¹
3 | TNT-190 (antibody, mouse IgG2a, kappa) heavy: EVQLVQSGGGLVKPGGSLRLSCAASGFTFSDYYMSWVRQAPGKGLEWVSAISGSGGSTYYADSVKGRFTISRDNSKNTLYLQMNSLRAEDTAVYYCARDEGYYYMDVWGKGTTVTVSSAKTTAPSVYPLAPVCGDTTGSSVTLGCLVKGYFPEPVTLTWNSGSLSSGVHTFPAVLQSDLYTLSSSVTVTSSTWPSQSITCNVAHPASSTKVDKKIEPRGPTIKPCPPCKCPAPNLLGGPSVFIFPPKIKDVLMISLSPIVTCVVVDVSEDDPDVQISWFVNNVEVHTAQTQTHREDYNSTLRVVSALPIQHQDWMSGKEFKCKVNNKDLPAPIERTISKPKGSVRAPQVYVLPPPEEEMTKKQVTLTCMVTDFMPEDIYVEWTNNGKTELNYKNTEPVLDSDGSYFMYSKLRVEKKNWVERNSYSCSVVHEGLHNHHTTKSFSRTPGRPQGFGPP light: EIVLTQSPATLSLSPGERATLSCRASQSVSSYLAWYQQKPGQAPRLLIYDASNRATGIPARFSGSGSGTDFTLTISSLQAEDFATYYCQQSYSTRFGGGTKVEIKRADAAPTVSIFPPSSEQLTSGGASVVCFLNNFYPKDINVKWKIDGSERQNGVLNSWTDQDSKDSTYSMSSTLTLTKDEYERHNSYTCEATHKTSTSPIVKSFNRNEC | 0.3% | 5.1 fold | 1.5% | 3.5% | 13.5% | 1.2% | 0.5% | 0.7% | 2.4% | 0.3% | 0.3% | 0.8% | 3.4% | 31.4 nM | 0.00831 s⁻¹ | 265000 M⁻¹ s⁻¹

Source: patent US20240382610A1 (TALLAC THERAPEUTICS, published 2024)
